{
  "source": "patent US20090304717A1",
  "key": {"[1]": {"molecular_target": "PSMA (prostate-specific membrane antigen) (UniProt Q04609)", "sequence (Q04609 whole entry)": "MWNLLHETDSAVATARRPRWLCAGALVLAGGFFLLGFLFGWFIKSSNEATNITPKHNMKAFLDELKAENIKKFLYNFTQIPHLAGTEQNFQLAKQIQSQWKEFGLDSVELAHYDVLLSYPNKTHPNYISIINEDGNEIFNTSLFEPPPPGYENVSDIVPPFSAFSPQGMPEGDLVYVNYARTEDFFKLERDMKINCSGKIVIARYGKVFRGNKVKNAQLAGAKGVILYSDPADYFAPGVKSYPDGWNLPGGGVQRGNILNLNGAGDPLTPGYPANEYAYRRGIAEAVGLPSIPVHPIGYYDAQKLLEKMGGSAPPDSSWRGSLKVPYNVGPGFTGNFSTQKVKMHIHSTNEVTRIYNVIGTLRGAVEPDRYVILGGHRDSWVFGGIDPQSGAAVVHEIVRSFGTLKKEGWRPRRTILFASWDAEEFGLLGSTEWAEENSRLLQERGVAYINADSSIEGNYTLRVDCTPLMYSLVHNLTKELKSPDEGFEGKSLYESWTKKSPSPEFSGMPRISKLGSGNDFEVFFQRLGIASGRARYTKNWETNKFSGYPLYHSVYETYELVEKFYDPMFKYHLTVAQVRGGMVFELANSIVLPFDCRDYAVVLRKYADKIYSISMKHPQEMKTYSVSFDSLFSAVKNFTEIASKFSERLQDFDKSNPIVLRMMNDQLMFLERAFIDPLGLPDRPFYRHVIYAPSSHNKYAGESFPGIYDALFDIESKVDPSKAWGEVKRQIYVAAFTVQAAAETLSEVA", "experiment": "cell_activity", "details": "cytotoxicity on LNCaP, no effect on PSMA-negative MCF-7"}, "[2]": {"molecular_target": "PSMA (prostate-specific membrane antigen) (UniProt Q04609)", "experiment": "flow", "details": "LNCaP cells, on ice, sigmoidal fit"}, "[3]": {"details": "2'-F pyrimidines (library chemistry)"}},
  "data": [
    {"sequence": "GGGAGGACGAUGCGGAUCAGCCAUGUUUACGUCACUCCUUGUCAAUCCUCAUCGGCAGCGCCAUCAUGGACAAGAAUUGAAGCUUCUUCUUGUCCAUGAUGGCGCGG [xPSM-A-3-siEEF2]", "values": [
      {"measurement": "EC50", "setting": "[1]; [3]", "result": 1510, "unit": "nM"},
      {"measurement": "Kd", "setting": "[2]; [3]", "result": 26.7, "unit": "nM"}
    ]},
    {"sequence": "GGGAGGACGAUGCGGAUCAGCCAUGUUUACGUCACUCCUUGUCAAUCCUCAUCGGCUAAAAAUUGCGCCAUCAUGGACAAGAAUU / GGGAGGACGAUGCGGAUCAGCCAUGUUUACGUCACUCCUUGUCAAUCCUCAUCGGCAAAAAUUCUUGUCCAUGAUGGCGCGG [PSMA biv anneal siEEF2 (1+2 annealed)]", "values": [
      {"measurement": "Kd", "setting": "[2]; transcribed with Durascribe T7 kit (kit implies 2'-F pyrimidines)", "result": 46.5, "unit": "nM"}
    ]},
    {"sequence": "GGGAGGACGAUGCGGAUCAGCCAUGUUUACGUCACUCCUUGUCAAUCCUCAUCGGCUAAAAAUUGCGCCAUCAUGGACAAGAAUUAAUUAAGGGAGGACGAUGCGGAUCAGCCAUGUUUACGUCACUCCUUGUCAAUCCUCAUCGGCAAAAAUUCUUGUCCAUGAUGGCGCGGGAGCUCGAAUU [PSMB1-siEEF2]", "values": [
      {"measurement": "EC50", "setting": "[1]; transcribed with Durascribe T7 kit (kit implies 2'-F pyrimidines), +/-0.1246", "result": 517, "unit": "nM"}
    ]},
    {"sequence": "GGGAGGACGAUGCGGAUCAGCCAUGUUUACGUCACUCCUUGUCAAUCCUCAUCGGCUAAAAUUAGGCCUAUCUGCCCGUCAAUUAAAAAUUGGGAGGACGAUGCGGAUCAGCCAUGUUUACGUCACUCCUUGUCAAUCCUCAUCGGCAGCGCCAUCAUGGACAAGAAUUGAAGCUUCUUCUUGUCCAUGAUGGCGCGGAAAAAAAUUGACGGGCAGAUAGGCCUUUGAGCUCGAAUU [PSMB2-siEEF2]", "values": [
      {"measurement": "EC50", "setting": "[1]; transcribed with Durascribe T7 kit (kit implies 2'-F pyrimidines), +/-0.01282", "result": 212, "unit": "nM"}
    ]}
  ]
}
